Test results: PMC5510750

Target: IFN-λ3 H11 displayed on yeast
Assay: flow cytometry on cells

Chain of IL-10Rβ, monomeric soluble receptor (Q08334 20-220): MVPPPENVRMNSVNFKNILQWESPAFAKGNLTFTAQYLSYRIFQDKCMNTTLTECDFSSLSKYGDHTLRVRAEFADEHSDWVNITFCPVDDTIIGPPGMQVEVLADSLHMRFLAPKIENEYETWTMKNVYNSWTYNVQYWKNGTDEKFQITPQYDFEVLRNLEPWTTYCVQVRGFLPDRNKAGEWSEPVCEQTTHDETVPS

Kd: 200 nM
Substance: IL-10Rβ, monomeric soluble receptor (from UniProt Q08334 20-220)
